According to IntAct's records for PubMed 31515488:

B1: NF-kappa-B inhibitor delta (Homo sapiens), Q8NI38 (parent)
chain: MEAGPWRVSAPPSGPPQFPAVVPGPSLEVARAHMLALGPQQLLAQDEEGDTLLHLFAARGLRWAAYAAAEVLQVYRRLDIREHKGKTPLLVAAAANQPLIVEDLLNLGAEPNAADHQGRSVLHVAATYGLPGVLLAVLNSGVQVDLEARDFEGLTPLHTAILALNVAMRPSDLCPRVLSTQARDRLDCVHMLLQMGANHTSQEIKSNKTVLHLAVQAANPTLVQLLLELPRGDLRTFVNMKAHGNTALHMAAALPPGPAQEAIVRHLLAAGADPTLRNLENEQPVHLLRPGPGPEGLRQLLKRSRVAPPGLSS
B2: Uncharacterized protein C12orf50 (Homo sapiens), Q8NA57 (parent)
chain: MEMQQNCSISCFWETQPLGCVKISCIFYHSKPRNINGLFLPPSSNITLQKEIQEGIPLQSQSQEPLKPQENISRPIHHPLVLKTNFEEEEEVDEQNDASSLWTKTPEEIEEKRAIKEMCYKSGEYYRFHTPPDILSSKSMTPTAEKQLEKPLENGSELQEGDSLTVPTKLSQYERQGEIKTSLHGKPKTDIAAFENGGGDCYVPQRVIFLGVDESEALTEEKEITISKCSNTKDNKDSPHPKHSLTTRLVPTTHVLNATENISMKCREDPSSMNDVQPVKKPHFKGVKKRKWIYDEPQNFPNSGMQRAVQAPRPQNKMSYHRNNKNRNAENASYIHVQRDAVRTVALNAPSRSRPTHGSYNKVHANREPKPNLSPDKYTSTSYNDSAWRKRIPFSKTYSKSEKIYPEPRRNGSK
partner: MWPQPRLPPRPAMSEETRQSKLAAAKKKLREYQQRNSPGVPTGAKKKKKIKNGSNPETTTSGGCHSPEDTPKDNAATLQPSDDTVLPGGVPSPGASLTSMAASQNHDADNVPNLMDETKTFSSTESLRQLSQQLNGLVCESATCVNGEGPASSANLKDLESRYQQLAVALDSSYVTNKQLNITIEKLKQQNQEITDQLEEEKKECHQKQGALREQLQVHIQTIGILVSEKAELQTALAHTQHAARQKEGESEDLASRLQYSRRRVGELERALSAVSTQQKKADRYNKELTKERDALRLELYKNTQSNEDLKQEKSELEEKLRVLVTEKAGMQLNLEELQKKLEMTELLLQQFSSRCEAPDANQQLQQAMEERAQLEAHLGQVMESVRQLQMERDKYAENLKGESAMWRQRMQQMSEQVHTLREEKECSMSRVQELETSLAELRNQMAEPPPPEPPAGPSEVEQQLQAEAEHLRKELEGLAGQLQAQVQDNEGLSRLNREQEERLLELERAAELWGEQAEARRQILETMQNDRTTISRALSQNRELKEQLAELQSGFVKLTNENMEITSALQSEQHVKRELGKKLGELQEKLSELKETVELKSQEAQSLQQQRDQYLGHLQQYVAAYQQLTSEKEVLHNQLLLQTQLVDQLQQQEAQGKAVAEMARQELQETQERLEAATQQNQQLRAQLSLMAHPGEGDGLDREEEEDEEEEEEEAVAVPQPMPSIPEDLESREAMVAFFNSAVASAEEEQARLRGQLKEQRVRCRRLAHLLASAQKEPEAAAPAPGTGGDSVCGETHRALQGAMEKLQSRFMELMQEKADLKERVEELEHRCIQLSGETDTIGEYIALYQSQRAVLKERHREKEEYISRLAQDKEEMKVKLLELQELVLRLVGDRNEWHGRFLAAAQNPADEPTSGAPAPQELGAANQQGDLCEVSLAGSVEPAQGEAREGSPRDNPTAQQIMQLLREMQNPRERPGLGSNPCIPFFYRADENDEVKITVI
B3: DNA repair and recombination protein RAD54B (Homo sapiens), Q9Y620 (parent)
chain: MRRSAAPSQLQGNSFKKPKFIPPGRSNPGLNEEITKLNPDIKLFEGVAINNTFLPSQNDLRICSLNLPSEESTREINNRDNCSGKYCFEAPTLATLDPPHTVHSAPKEVAVSKEQEEKSDSLVKYFSVVWCKPSKKKHKKWEGDAVLIVKGKSFILKNLEGKDIGRGIGYKFKELEKIEEGQTLMICGKEIEVMGVISPDDFSSGRCFQLGGGSTAISHSSQVARKCFSNPFKSVCKPSSKENRQNDFQNCKPRHDPYTPNSLVMPRPDKNHQWVFNKNCFPLVDVVIDPYLVYHLRPHQKEGIIFLYECVMGMRMNGRCGAILADEMGLGKTLQCISLIWTLQCQGPYGGKPVIKKTLIVTPGSLVNNWKKEFQKWLGSERIKIFTVDQDHKVEEFIKSIFYSVLIISYEMLLRSLDQIKNIKFDLLICDEGHRLKNSAIKTTTALISLSCEKRIILTGTPIQNDLQEFFALIDFVNPGILGSLSSYRKIYEEPIILSREPSASEEEKELGERRAAELTCLTGLFILRRTQEIINKYLPPKIENVVFCRPGALQIELYRKLLNSQVVRFCLQGLLENSPHLICIGALKKLCNHPCLLFNSIKEKECSSTCDKNEEKSLYKGLLSVFPADYNPLLFTEKESGKLQVLSKLLAVIHELRPTEKVVLVSNYTQTLNILQEVCKRHGYAYTRLDGQTPISQRQQIVDGFNSQHSSFFIFLLSSKAGGVGLNLIGGSHLILYDIDWNPATDIQAMSRVWRDGQKYPVHIYRLLTTGTIEEKIYQRQISKQGLCGAVVDLTKTSEHIQFSVEELKNLFTLHESSDCVTHDLLDCECTGEEVHTGDSLEKFIVSRDCQLGPHHQKSNSLKPLSMSQLKQWKHFSGDHLNLTDPFLERITENVSFIFQNITTQATGT
partner: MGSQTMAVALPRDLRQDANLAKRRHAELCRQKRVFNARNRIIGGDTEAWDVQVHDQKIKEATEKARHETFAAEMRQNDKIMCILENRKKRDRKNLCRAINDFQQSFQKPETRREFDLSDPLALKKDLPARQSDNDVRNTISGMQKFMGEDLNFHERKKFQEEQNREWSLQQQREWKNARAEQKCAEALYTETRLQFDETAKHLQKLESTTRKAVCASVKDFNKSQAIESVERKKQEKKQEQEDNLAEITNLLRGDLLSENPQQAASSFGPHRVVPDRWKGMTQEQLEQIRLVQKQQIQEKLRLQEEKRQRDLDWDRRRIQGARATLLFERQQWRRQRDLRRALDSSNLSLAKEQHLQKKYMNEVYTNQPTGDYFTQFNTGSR
B4: Aminoacylase-1 (Homo sapiens), Q03154 (parent)
chain: MTSKGPEEEHPSVTLFRQYLRIRTVQPKPDYGAAVAFFEETARQLGLGCQKVEVAPGYVVTVLTWPGTNPTLSSILLNSHTDVVPVFKEHWSHDPFEAFKDSEGYIYARGAQDMKCVSIQYLEAVRRLKVEGHRFPRTIHMTFVPDEEVGGHQGMELFVQRPEFHALRAGFALDEGIANPTDAFTVFYSERSPWWVRVTSTGRPGHASRFMEDTAAEKLHKVVNSILAFREKEWQRLQSNPHLKEGSVTSVNLTKLEGGVAYNVIPATMSASFDFRVAPDVDFKAFEEQLQSWCQAAGEGVTLEFAQKWMHPQVTPTDDSNPWWAAFSRVCKDMNLTLEPEIMPAATDNRYIRAVGVPALGFSPMNRTPVLLHDHDERLHEAVFLRGVDIYTRLLPALASVPALPSDS
partner: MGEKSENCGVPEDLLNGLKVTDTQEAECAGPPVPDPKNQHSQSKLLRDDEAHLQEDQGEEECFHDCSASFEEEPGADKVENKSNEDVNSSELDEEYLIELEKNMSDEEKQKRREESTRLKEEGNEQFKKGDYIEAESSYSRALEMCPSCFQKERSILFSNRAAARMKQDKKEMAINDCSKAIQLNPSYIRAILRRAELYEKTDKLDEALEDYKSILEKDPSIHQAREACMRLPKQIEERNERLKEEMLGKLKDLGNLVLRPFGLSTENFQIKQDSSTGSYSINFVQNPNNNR

Variants of: B1
Conditions: with ssxt_human SS18, Q15532
ssxt_human SS18, Q15532, sequence (Q15532 whole entry): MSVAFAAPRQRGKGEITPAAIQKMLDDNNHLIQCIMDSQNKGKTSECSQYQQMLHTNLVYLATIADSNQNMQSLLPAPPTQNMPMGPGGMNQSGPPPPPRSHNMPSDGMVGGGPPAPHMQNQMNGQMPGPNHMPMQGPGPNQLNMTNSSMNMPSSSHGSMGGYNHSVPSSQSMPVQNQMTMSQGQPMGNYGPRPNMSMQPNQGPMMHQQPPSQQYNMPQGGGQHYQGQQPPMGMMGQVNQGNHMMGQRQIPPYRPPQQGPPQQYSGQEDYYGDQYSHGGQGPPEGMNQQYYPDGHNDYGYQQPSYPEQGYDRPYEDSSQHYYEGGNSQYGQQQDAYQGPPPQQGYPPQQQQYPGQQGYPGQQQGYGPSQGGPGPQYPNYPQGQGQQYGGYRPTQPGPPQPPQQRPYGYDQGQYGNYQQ

Row | Variant | effect of a mutation on the interaction
1 | V29A | with no effect

Variants of: B2
Conditions: with goga2_human GOLGA2, Q08379

Row | Variant | effect of a mutation on the interaction
2 | Q306R | with no effect
3 | Y334C | with no effect
4 | W292R | disrupting interaction strength

Variants of: B3
Conditions: with ribc2_human RIBC2, Q9H4K1

Row | Variant | effect of a mutation on the interaction
5 | L30V | with no effect

Variants of: B4
Conditions: with ttc1_human TTC1, Q99614

Row | Variant | effect of a mutation on the interaction
6 | R197W | disrupting interaction strength
